Here are results for two substances from article PMC12038025.

One may read the stoichiometry N as the number of molecules, sites or subunits per partner or assembly.

Series [1] concerns O35161. In words: SEC-MALS. Background: Size exclusion chromatography separates by hydrodynamic size, large species first.
The target in series [2] is CELSR1 extracellular region, CADH1 through GAIN domains (residues 255-2477) (mouse) (UniProt O35161). In words: SEC-MALS.

Regarding “CELSR1 extracellular region, CADH1 through GAIN domains (residues 255-2477)”, in series [1], the “percent dimer in the main peak” value is “roughly 60% dimer”. “CELSR1 extracellular region, CADH1 through GAIN domains (residues 255-2477), O35161 255-2477” gave a stoichiometry N in series [2] of 2.
